{"source": "paper PMC12582157", "key": {"[1]": {"target": "T1, β-conglutin (Lupinus albus (white lupin)?) (UniProt Q53HY0)", "T1 sequence": "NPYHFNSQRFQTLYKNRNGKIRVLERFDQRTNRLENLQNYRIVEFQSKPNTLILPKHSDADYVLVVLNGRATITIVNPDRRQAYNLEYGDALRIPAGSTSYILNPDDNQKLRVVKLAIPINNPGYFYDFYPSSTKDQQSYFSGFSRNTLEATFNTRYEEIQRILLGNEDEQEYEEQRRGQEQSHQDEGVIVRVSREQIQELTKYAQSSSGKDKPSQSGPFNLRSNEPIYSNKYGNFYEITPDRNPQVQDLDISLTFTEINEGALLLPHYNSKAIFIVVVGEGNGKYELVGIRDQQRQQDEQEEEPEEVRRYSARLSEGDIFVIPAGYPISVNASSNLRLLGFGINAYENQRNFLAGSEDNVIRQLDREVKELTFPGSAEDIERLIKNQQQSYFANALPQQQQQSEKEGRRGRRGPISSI", "assay": "MST", "details": "Binding buffer, salt, pH and temperature not given in the material"}, "[2]": {"target": "T1, β-conglutin (Lupinus albus (white lupin)?)", "assay": "BLI", "details": "1:1 model, Binding buffer, salt"}, "[3]": {"target": "T1, β-conglutin (Lupinus albus (white lupin)?)", "assay": "SPR", "details": "dA outside the 5' primer region (nt 24-94) replaced by indole-modified dA (dAEIn); Binding buffer, salt, pH and temperature not given in the material"}, "[4]": {"target": "T1, β-conglutin (Lupinus albus (white lupin)?)", "assay": "ELAA", "details": "Binding buffer, salt, pH and temperature not given in the material"}, "[5]": {"details": "all dA = dAEIn, 5' dC carries Cy5"}, "[6]": {"details": "dA outside the 5' primer region (nt 24-94) replaced by indole-modified dA (dAEIn)"}}}
{"sequence": "AGCTCCAGAAGATAAATTACAGGCCAAGATCTCGCGAGTTCCCAACAGGGCAGAGAGATGCCCGACACCAGTG [HB8_T1]", "values": [{"measurement": "Kd", "setting": "[1]; dA in nt 24-73 = dAEIn", "value": 42, "unit": "nM"}, {"measurement": "Kd", "setting": "[2]; dA in nt 24-73 = dAEIn, pH and temperature not given in the material", "value": 0.6, "unit": "nM"}]}
{"sequence": "CCAAGATCTCGCGAGTTCCCAACAGGGCAGAGAGATGCCCGACACCAGTG [HB8_T3]", "values": [{"measurement": "Kd", "setting": "[1]; [5]", "value": 145, "unit": "nM"}]}
{"sequence": "AGCTCCAGAAGATAAATTACAGGCCAAGATCTCGCGAGTTCCCAACAGGGCAGAGAGATGCCCGACACCAGTGCAACTAGGATACTATGACCCC [HB8_M1]", "values": [{"measurement": "Kd", "setting": "[1]; dAEIn as in HB8 except three central positions following the primer, which are natural dA", "value": 134, "unit": "nM"}]}
{"sequence": "CCAAGATCTCGCGAGTTCCCAACAGGGCAGAGAGATGCCCGACACCAGTGCAACTAGGATACTATGACCCC [HB8_T2]", "values": [{"measurement": "Kd", "setting": "[1]; [5]", "value": 256, "unit": "nM"}]}
{"sequence": "GATAAATTACAGGCCAAGATCTCGCGAGTTCCCAACAGGGCAGAGAGATGCCCGACACCAGTGCAACTAGGATACTATGACCCC [HB8_T4]", "values": [{"measurement": "Kd", "setting": "[1]; dA after the 13 nt primer remainder = dAEIn", "value": 24, "unit": "nM"}]}
{"sequence": "AGCTCCAGAAGATAAATTACAGGCCAAGATCTCGCGAGTTCCCAACAGGGCAGAGAGATGCCCGACACCAGTGCAACTAGGATACTATGACCCC [HB8_M2]", "values": [{"measurement": "Kd", "setting": "[1]; dAEIn in nt 24-73, 3' 21 nt with natural dA", "value": 44, "unit": "nM"}]}
{"sequence": "AGCTCCAGAAGATAAATTACAGGCCAAGATCTCGCGAGTTCCCAACAGGGCAGAGAGATGCCCGACACCAGTGCAACTAGGATACTATGACCCC [HB8]", "values": [{"measurement": "Kd", "setting": "[3]", "value": 92, "unit": "nM"}, {"measurement": "Kd", "setting": "[1]; [6]", "value": 41, "unit": "nM"}, {"measurement": "Kd", "setting": "[2]; dA outside the 5' primer region (nt 24-94) replaced by indole-modified dA (dAEIn), pH and temperature not given in the …", "value": 0.9, "unit": "nM"}, {"measurement": "Kd", "setting": "[4]; [6]", "value": 0.6, "unit": "nM"}]}
{"sequence": "AGCTCCAGAAGATAAATTACAGGCAAGATCACCGTAGACGCGTCGAGAAGTGTGAGATCCTATGAAATGACCGCAACTAGGATACTATGACCCC [HB7]", "values": [{"measurement": "Kd", "setting": "[4]; dA outside 5' primer = dAEIn", "value": 1.1, "unit": "nM"}]}
